Assay results reported in article PMC5787804 (2017).
Where no end group is shown, it is not given here. Side-chain parts run from the residue outwards. silicon chip = not defined here

Tests used:
[1] = molecular target: Orai1-L2 (aa 136–186, mutation C143G) (human, UniProt Q96D31 136-186, C143G, conjugated to amino-functionalized AFM cantilever tips via a flexible NHS-PEG18-acetal cross-linker); test: AFM single-molecule force spectroscopy
[2] = molecular target: Orai3-L2 (aa 111–161, mutation C118G) (human, UniProt Q9BRQ5 111-161, C118G, conjugated to amino-functionalized AFM cantilever tips via a flexible NHS-PEG18-acetal cross-linker); test: AFM single-molecule force spectroscopy

Chain of Orai1-L2 (aa 136–186, mutation C143G) (Q96D31 136-186 C143G): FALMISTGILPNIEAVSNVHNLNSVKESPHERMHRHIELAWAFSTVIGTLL

Row | Binder | koff [1] | koff [2]
1 | SMQALSWRKLYLSRAKLKASSRC (added C-terminal cysteine for site-specific coupling; immobilized on silicon chips via NHS-PEG27-maleimide linkers) [Orai1-NT 70–91] | 1.9 s⁻¹ | 0.23 s⁻¹
2 | LYLSRAKLKASSRC([NHS‑PEG27‑maleimide-silicon chip]) (reading uncertain) [Orai1-NT 79–91] | 0.13 s⁻¹ | 0.09 s⁻¹
